Measured values published in article PMC8666006 (Cancer cell, 2020).

Target: MutLα (MLH1-PMS2) (human, UniProt P40692 1-756; P54278 1-862)
Assay: co-IP

Chain of MutLα (MLH1-PMS2) (P40692 whole entry, chain 1 of 2): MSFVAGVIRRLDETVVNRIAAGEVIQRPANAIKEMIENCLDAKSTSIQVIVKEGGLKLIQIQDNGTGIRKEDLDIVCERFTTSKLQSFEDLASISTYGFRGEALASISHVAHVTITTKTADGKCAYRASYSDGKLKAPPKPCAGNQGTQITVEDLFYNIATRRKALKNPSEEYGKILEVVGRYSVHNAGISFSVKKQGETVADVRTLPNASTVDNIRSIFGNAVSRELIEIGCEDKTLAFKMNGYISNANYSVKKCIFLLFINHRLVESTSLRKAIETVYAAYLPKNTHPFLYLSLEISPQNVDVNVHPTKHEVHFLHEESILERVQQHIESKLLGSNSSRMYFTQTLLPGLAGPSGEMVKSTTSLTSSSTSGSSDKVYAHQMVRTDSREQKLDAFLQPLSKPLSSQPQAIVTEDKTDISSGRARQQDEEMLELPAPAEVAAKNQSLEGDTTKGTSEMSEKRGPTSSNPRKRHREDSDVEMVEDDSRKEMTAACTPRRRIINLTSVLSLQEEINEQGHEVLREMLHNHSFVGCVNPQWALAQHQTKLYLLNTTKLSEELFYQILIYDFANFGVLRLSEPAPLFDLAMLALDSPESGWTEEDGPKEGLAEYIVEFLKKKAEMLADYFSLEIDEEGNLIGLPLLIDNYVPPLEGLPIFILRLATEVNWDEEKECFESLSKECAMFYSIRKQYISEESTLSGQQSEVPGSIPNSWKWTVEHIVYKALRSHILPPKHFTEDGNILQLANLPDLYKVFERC
Chain of MutLα (MLH1-PMS2) (P54278 whole entry, chain 2 of 2): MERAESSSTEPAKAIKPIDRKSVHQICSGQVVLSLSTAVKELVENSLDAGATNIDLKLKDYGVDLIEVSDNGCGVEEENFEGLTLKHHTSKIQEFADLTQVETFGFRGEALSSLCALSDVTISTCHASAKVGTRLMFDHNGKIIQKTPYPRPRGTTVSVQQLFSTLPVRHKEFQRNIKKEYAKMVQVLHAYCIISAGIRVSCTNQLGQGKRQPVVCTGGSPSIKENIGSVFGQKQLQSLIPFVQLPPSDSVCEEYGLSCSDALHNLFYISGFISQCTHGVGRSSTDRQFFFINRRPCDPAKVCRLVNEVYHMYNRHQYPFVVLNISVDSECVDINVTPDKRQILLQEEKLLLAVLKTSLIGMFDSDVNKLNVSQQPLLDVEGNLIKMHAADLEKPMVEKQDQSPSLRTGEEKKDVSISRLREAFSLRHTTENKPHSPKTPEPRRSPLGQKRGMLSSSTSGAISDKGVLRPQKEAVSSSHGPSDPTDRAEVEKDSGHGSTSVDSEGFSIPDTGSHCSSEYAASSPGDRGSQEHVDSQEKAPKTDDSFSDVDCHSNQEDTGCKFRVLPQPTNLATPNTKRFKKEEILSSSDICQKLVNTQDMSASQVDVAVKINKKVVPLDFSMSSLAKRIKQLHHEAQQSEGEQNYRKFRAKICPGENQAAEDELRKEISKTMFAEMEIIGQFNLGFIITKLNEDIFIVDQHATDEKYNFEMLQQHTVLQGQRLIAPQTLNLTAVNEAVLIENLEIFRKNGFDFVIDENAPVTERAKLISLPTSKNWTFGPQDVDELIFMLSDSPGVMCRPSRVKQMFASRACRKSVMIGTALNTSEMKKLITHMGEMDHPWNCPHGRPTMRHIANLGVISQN

| binding result | Binder |
| --- | --- |
| binds | Exo1-ΔC (domain or fragment, human, UniProt Q9UQ84 1-602, looked up) MGIQGLLQFIKEASEPIHVRKYKGQVVAVDTYCWLHKGAIACAEKLAKGEPTDRYVGFCMKFVNMLLSHGIKPILVFDGCTLPSKKEVERSRRERRQANLLKGKQLLREGKVSEARECFTRSINITHAMAHKVIKAARSQGVDCLVAPYEADAQLAYLNKAGIVQAIITEDSDLLAFGCKKVILKMDQFGNGLEIDQARLGMCRQLGDVFTEEKFRYMCILSGCDYLSSLRGIGLAKACKVLRLANNPDIVKVIKKIGHYLKMNITVPEDYINGFIRANNTFLYQLVFDPIKRKLIPLNAYEDDVDPETLSYAGQYVDDSIALQIALGNKDINTFEQIDDYNPDTAMPAHSRSHSWDDKTCQKSANVSSIWHRNYSPRPESGTVSDAPQLKENPSTVGVERVISTKGLNLPRKSSIVKRPRSAELSEDDLLSQYSLSFTKKTKKNSSEGNKSLSFSEVFVPDLVNGPTNKKSVSTPPRTRNKFATFLQRKNEESGAVVVPGTRSRFFCSSDSTDCVSNKVSIQPLDETAVTDKENNLHESEYGDQEGKRLVDTDVARNSSDDIPNNHIPGDHIPDKATVFTDEESYSFESSKFTRTISPPTL |
| binds | Exo1-FF-AA (enzyme, human, UniProt Q9UQ84 1-846, looked up) MGIQGLLQFIKEASEPIHVRKYKGQVVAVDTYCWLHKGAIACAEKLAKGEPTDRYVGFCMKFVNMLLSHGIKPILVFDGCTLPSKKEVERSRRERRQANLLKGKQLLREGKVSEARECFTRSINITHAMAHKVIKAARSQGVDCLVAPYEADAQLAYLNKAGIVQAIITEDSDLLAFGCKKVILKMDQFGNGLEIDQARLGMCRQLGDVFTEEKFRYMCILSGCDYLSSLRGIGLAKACKVLRLANNPDIVKVIKKIGHYLKMNITVPEDYINGFIRANNTFLYQLVFDPIKRKLIPLNAYEDDVDPETLSYAGQYVDDSIALQIALGNKDINTFEQIDDYNPDTAMPAHSRSHSWDDKTCQKSANVSSIWHRNYSPRPESGTVSDAPQLKENPSTVGVERVISTKGLNLPRKSSIVKRPRSAELSEDDLLSQYSLSFTKKTKKNSSEGNKSLSFSEVFVPDLVNGPTNKKSVSTPPRTRNKFATFLQRKNEESGAVVVPGTRSRAACSSDSTDCVSNKVSIQPLDETAVTDKENNLHESEYGDQEGKRLVDTDVARNSSDDIPNNHIPGDHIPDKATVFTDEESYSFESSKFTRTISPPTLGTLRSCFSWSGGLGDFSRTPSPSPSTALQQFRRKSDSPTSLPENNMSDVSQLKSEESSDDESHPLREEACSSQSQESGEFSLQSSNASKLSQCSSKDSDSEESDCNIKLLDSQSDQTSKLRLSHFSKKDTPLRNKVPGLYKSSSADSLSTTKIKPLGPARASGLSKKPASIQKRKHHNAENKPGLQIKLNELWKNFGFKKDSEKLPPCKKPLSPVRDNIQLTPEAEEDIFNKPECGRVQRAIFQ |
